Data reported in patent US20260062456A1 (ALPINE IMMUNE SCIENCES, published 2026).

T1: human TIGIT stably expressed on Jurkat/IL-2 reporter cells (Jurkat/TIGIT cells) (human, UniProt Q495A1 22-244)
T1 sequence (looked up): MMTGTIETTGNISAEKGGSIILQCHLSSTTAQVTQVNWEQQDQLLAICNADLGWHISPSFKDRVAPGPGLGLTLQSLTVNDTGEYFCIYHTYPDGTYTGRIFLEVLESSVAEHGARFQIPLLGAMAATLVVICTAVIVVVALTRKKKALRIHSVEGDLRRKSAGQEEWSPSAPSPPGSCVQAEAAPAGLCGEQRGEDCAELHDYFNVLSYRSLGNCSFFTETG

T2: human TIGIT stably expressed on Jurkat/IL-2 reporter cells (Jurkat/TIGIT cells) (human, UniProt Q495A1 22-244)
T2 sequence: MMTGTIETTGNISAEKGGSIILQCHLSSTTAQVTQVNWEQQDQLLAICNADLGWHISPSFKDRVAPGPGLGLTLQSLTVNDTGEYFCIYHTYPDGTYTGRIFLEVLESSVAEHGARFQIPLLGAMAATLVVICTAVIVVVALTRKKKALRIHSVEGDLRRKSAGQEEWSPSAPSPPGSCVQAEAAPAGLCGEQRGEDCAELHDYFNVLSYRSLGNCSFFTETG

T3: CD96 (UniProt P40200 22-585, limits assumed)
T3 sequence (looked up): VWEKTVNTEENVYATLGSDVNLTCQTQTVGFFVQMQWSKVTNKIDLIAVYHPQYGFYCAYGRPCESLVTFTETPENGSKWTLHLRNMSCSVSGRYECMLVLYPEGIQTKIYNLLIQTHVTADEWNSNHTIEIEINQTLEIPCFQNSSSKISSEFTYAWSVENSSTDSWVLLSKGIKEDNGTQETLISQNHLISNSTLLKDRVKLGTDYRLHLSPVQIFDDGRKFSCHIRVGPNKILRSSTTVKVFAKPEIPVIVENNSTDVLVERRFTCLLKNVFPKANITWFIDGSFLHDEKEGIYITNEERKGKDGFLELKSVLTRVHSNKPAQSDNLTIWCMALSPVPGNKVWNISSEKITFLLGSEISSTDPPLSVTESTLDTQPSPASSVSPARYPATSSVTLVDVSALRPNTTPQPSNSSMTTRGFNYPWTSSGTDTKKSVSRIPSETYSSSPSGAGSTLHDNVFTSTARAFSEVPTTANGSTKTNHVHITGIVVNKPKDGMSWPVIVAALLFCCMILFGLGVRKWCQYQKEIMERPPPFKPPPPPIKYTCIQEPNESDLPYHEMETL

B1: PD-L1/CD155 Stack 3: (CD155 IgV) (G4S)3 (PD-L1 IgV) (G4S)2 Fc (Fc fusion)
chain: WPPPGTGDVVVQAPTQVSGFLGDSVTLPCYLQVPNMEVTHVSQLTWARHGESGSMAVFHQTQGPWYAESKRLEFVAARLGAELRNASLRMFGLRVEDEGNYTCQFVTFPQRSRSVDIWLRVLGGGGSGGGGSGGGGSFTVTVPKDLYVVEYGSNMTIECKFPVEKQLDLAALIVYWEMEGKDIIQFVHGEEDQKAQHSSYRQRARLLKDQLSLGNAALQITDVKLQDAGVYRCMISYGGGADYKRITVKVNAGGGGSGGGGSEPKSSDKTHTCPPCPAPEAEGAPSVFLFPPKPKDTLMISRTPEVTCVVVDVSHEDPEVKFNWYVDGVEVHNAKTKPREEQYNSTYRVVSVLTVLHQDWLNGKEYKCKVSNKALPAPIEKTISKAKGQPREPQVYTLPPSRDELTKNQVSLTCLVKGFYPSDIAVEWESNGQPENNYKTTPPVLDSDGSFFLYSKLTVDKSRWQQGNVFSCSVMHEALHNHYTQKSLSLSPGK
B2: PD-L1/CD155 Stack 3 (Fc fusion)
chain: WPPPGTGDVVVQAPTQVSGFLGDSVTLPCYLQVPNMEVTHVSQLTWARHGESGSMAVFHQTQGPWYAESKRLEFVAARLGAELRNASLRMFGLRVEDEGNYTCQFVTFPQRSRSVDIWLRVLGGGGSGGGGSGGGGSFTVTVPKDLYVVEYGSNMTIECKFPVEKQLDLAALIVYWEMEGKDIIQFVHGEEDQKAQHSSYRQRARLLKDQLSLGNAALQITDVKLQDAGVYRCMISYGGGADYKRITVKVNAGGGGSGGGGSEPKSSDKTHTCPPCPAPEAEGAPSVFLFPPKPKDTLMISRTPEVTCVVVDVSHEDPEVKFNWYVDGVEVHNAKTKPREEQYNSTYRVVSVLTVLHQDWLNGKEYKCKVSNKALPAPIEKTISKAKGQPREPQVYTLPPSRDELTKNQVSLTCLVKGFYPSDIAVEWESNGQPENNYKTTPPVLDSDGSFFLYSKLTVDKSRWQQGNVFSCSVMHEALHNHYTQKSLSLSPGK
B3: PD-L1/CD155 Stack 1 (Fc fusion)
chain: WPPPGTGDVVVQAPTQVSGFLGDSVTLPCYLQVPNMEVTHVSQLTWARHGESGSMAVFHQTQGPWYAESKRLEFVAARLGAELRNASLRMFGLRVEDEGNYTCQFVTFPQRSRSVDIWLRVLGGGGSGGGGSEPKSSDKTHTCPPCPAPEAEGAPSVFLFPPKPKDTLMISRTPEVTCVVVDVSHEDPEVKFNWYVDGVEVHNAKTKPREEQYNSTYRVVSVLTVLHQDWLNGKEYKCKVSNKALPAPIEKTISKAKGQPREPQVYTLPPSRDELTKNQVSLTCLVKGFYPSDIAVEWESNGQPENNYKTTPPVLDSDGSFFLYSKLTVDKSRWQQGNVFSCSVMHEALHNHYTQKSLSLSPGKGGGGSGGGGSGGGGSFTVTVPKDLYVVEYGSNMTIECKFPVEKQLDLAALIVYWEMEGKDIIQFVHGEEDQKAQHSSYRQRARLLKDQLSLGNAALQITDVKLQDAGVYRCMISYGGGADYKRITVKVNA
B4: Wild-type CD155-ECD-Fc (Fc fusion, not shown: a dimerising Fc or GST)
chain: WPPPGTGDVVVQAPTQVPGFLGDSVTLPCYLQVPNMEVTHVSQLTWARHGESGSMAVFHQTQGPSYSESKRLEFVAARLGAELRNASLRMFGLRVEDEGNYTCLFVTFPQGSRSVDIWLRVLAKPQNTAEVQKVQLTGEPVPMARCVSTGGRPPAQITWHSDLGGMPNTSQVPGFLSGTVTVTSLWILVPSSQVDGKNVTCKVEHESFEKPQLLTVNLTVYYPPEVSISGYDNNWYLGQNEATLTCDARSNPEPTGYNWSTTMGPLPPFAVAQGAQLLIRPVDKPINTTLICNVTNALGARQAELTVQVKEGPPSEHSGISRN
B5: PD-L1/CD155 Stack 4: (PD-L1 IgV) (G4S)3 (CD155 IgV) (G4S)2 Fc (Fc fusion)
chain: FTVTVPKDLYVVEYGSNMTIECKFPVEKQLDLAALIVYWEMEGKDIIQFVHGEEDQKAQHSSYRQRARLLKDQLSLGNAALQITDVKLQDAGVYRCMISYGGGADYKRITVKVNAGGGGSGGGGSGGGGSWPPPGTGDVVVQAPTQVSGFLGDSVTLPCYLQVPNMEVTHVSQLTWARHGESGSMAVFHQTQGPWYAESKRLEFVAARLGAELRNASLRMFGLRVEDEGNYTCQFVTFPQRSRSVDIWLRVLGGGGSGGGGSEPKSSDKTHTCPPCPAPEAEGAPSVFLFPPKPKDTLMISRTPEVTCVVVDVSHEDPEVKFNWYVDGVEVHNAKTKPREEQYNSTYRVVSVLTVLHQDWLNGKEYKCKVSNKALPAPIEKTISKAKGQPREPQVYTLPPSRDELTKNQVSLTCLVKGFYPSDIAVEWESNGQPENNYKTTPPVLDSDGSFFLYSKLTVDKSRWQQGNVFSCSVMHEALHNHYTQKSLSLSPGK
B6: PD-L1/CD155 Stack 4 (Fc fusion)
chain: FTVTVPKDLYVVEYGSNMTIECKFPVEKQLDLAALIVYWEMEGKDIIQFVHGEEDQKAQHSSYRQRARLLKDQLSLGNAALQITDVKLQDAGVYRCMISYGGGADYKRITVKVNAGGGGSGGGGSGGGGSWPPPGTGDVVVQAPTQVSGFLGDSVTLPCYLQVPNMEVTHVSQLTWARHGESGSMAVFHQTQGPWYAESKRLEFVAARLGAELRNASLRMFGLRVEDEGNYTCQFVTFPQRSRSVDIWLRVLGGGGSGGGGSEPKSSDKTHTCPPCPAPEAEGAPSVFLFPPKPKDTLMISRTPEVTCVVVDVSHEDPEVKFNWYVDGVEVHNAKTKPREEQYNSTYRVVSVLTVLHQDWLNGKEYKCKVSNKALPAPIEKTISKAKGQPREPQVYTLPPSRDELTKNQVSLTCLVKGFYPSDIAVEWESNGQPENNYKTTPPVLDSDGSFFLYSKLTVDKSRWQQGNVFSCSVMHEALHNHYTQKSLSLSPGK
B7: PD-L1/CD155 Stack 2: (PD-L1 IgV) (G4S)2 Fc(G4S)3 (CD155 IgV) (Fc fusion)
chain: FTVTVPKDLYVVEYGSNMTIECKFPVEKQLDLAALIVYWEMEGKDIIQFVHGEEDQKAQHSSYRQRARLLKDQLSLGNAALQITDVKLQDAGVYRCMISYGGGADYKRITVKVNAGGGGSGGGGSEPKSSDKTHTCPPCPAPEAEGAPSVFLFPPKPKDTLMISRTPEVTCVVVDVSHEDPEVKFNWYVDGVEVHNAKTKPREEQYNSTYRVVSVLTVLHQDWLNGKEYKCKVSNKALPAPIEKTISKAKGQPREPQVYTLPPSRDELTKNQVSLTCLVKGFYPSDIAVEWESNGQPENNYKTTPPVLDSDGSFFLYSKLTVDKSRWQQGNVFSCSVMHEALHNHYTQKSLSLSPGKGGGGSGGGGSGGGGSWPPPGTGDVVVQAPTQVSGFLGDSVTLPCYLQVPNMEVTHVSQLTWARHGESGSMAVFHQTQGPWYAESKRLEFVAARLGAELRNASLRMFGLRVEDEGNYTCQFVTFPQRSRSVDIWLRVL
B8: PD-L1/CD155 Stack 2 (Fc fusion)
chain: FTVTVPKDLYVVEYGSNMTIECKFPVEKQLDLAALIVYWEMEGKDIIQFVHGEEDQKAQHSSYRQRARLLKDQLSLGNAALQITDVKLQDAGVYRCMISYGGGADYKRITVKVNAGGGGSGGGGSEPKSSDKTHTCPPCPAPEAEGAPSVFLFPPKPKDTLMISRTPEVTCVVVDVSHEDPEVKFNWYVDGVEVHNAKTKPREEQYNSTYRVVSVLTVLHQDWLNGKEYKCKVSNKALPAPIEKTISKAKGQPREPQVYTLPPSRDELTKNQVSLTCLVKGFYPSDIAVEWESNGQPENNYKTTPPVLDSDGSFFLYSKLTVDKSRWQQGNVFSCSVMHEALHNHYTQKSLSLSPGKGGGGSGGGGSGGGGSWPPPGTGDVVVQAPTQVSGFLGDSVTLPCYLQVPNMEVTHVSQLTWARHGESGSMAVFHQTQGPWYAESKRLEFVAARLGAELRNASLRMFGLRVEDEGNYTCQFVTFPQRSRSVDIWLRVL
B9: CD112-IgV (Fc fusion, not shown: a dimerising Fc or GST)
chain: QDVRVQVLPEVRGQLGGTVELPCHLLPPVPGLYISLVTWQRPDAPANHQNVAAFHPKMGPSFPSPKPGSERLSFVSAKQSTGQDTEAELQDATLALHGLTVEDEGNYTCEFATFPKGSVRGMTWLRV

Key:
[1] = molecular target: human PD-1 stably expressed on Jurkat/IL-2 reporter cells (Jurkat/PD-1 cells) (human, UniProt Q15116 25-288); experiment: cell-based or functional assay
[2] = molecular target: T1, human TIGIT stably expressed on …; experiment: cell-based or functional assay
[3] = molecular target: human PD-1 stably expressed on Jurkat/IL-2 reporter cells (Jurkat/PD-1 cells) (human, UniProt Q15116 21-288); experiment: flow cytometry, Jurkat/PD-1 cells, 20 nM
[4] = molecular target: T2, human TIGIT stably expressed on …; experiment: flow cytometry, Jurkat/TIGIT cells, 20 nM
CD96 = molecular target: T3, CD96; experiment: flow cytometry, cells expressing CD96

Chain of human PD-1 stably expressed on Jurkat/IL-2 reporter cells (Jurkat/PD-1 cells) (human, UniProt Q15116 21-288) (Q15116 21-288): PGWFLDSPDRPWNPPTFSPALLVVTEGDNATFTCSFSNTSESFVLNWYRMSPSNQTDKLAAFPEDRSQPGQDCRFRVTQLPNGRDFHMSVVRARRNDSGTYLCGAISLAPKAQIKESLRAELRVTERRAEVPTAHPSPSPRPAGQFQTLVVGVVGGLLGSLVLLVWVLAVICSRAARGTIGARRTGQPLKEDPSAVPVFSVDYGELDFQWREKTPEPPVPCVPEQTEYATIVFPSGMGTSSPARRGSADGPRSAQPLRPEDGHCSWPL
Chain of human PD-1 stably expressed on Jurkat/IL-2 reporter cells (Jurkat/PD-1 cells) (human, UniProt Q15116 25-288) (Q15116 25-288): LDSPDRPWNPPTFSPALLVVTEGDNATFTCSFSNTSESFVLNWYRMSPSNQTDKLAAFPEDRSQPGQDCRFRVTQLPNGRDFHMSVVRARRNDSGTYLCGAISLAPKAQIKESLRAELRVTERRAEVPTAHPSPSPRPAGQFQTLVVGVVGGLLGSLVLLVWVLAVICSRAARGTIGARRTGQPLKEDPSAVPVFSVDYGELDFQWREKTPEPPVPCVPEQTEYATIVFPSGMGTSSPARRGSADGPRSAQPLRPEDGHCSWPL

| Binder | Fold Increase Compared to non-stack variant CD155 IgV-Fc control [1] | Fold Increase Compared to non-stack variant PD-L1 IgV-Fc control [1] | Fold Increase Compared to variant PD-L1 IgV-Fc and variant CD155 IgV-Fc [1] | RLU [1] | Fold Increase Compared to non-stack variant CD155 IgV-Fc control [2] | Fold Increase Compared to non-stack variant PD-L1 IgV-Fc control [2] | Fold Increase Compared to variant PD-L1 IgV-Fc and variant CD155 IgV-Fc [2] | RLU [2] | MFI at 20 nM [3] | MFI at 20 nM [4] | also measured |
| --- | --- | --- | --- | --- | --- | --- | --- | --- | --- | --- | --- |
| B1 | 1.3 fold | 0.5 fold | 0.6 fold | 434 RLU | 1.3 fold | 0.5 fold | 0.6 fold | 434 RLU | – | – | – |
| B2 | – | – | – | – | – | – | – | – | 47300 MFI | 81800 MFI | – |
| B3 | – | – | – | – | – | – | – | – | 61800 MFI | 80700 MFI | – |
| B4 | – | – | – | – | – | – | – | – | 511 MFI | – | – |
| B5 | 5.6 fold | 2 fold | 2.7 fold | 1920 RLU | 5.6 fold | 2 fold | 2.7 fold | 1920 RLU | – | – | – |
| B6 | – | – | – | – | – | – | – | – | 78000 MFI | 60500 MFI | – |
| B7 | 2.8 fold | 1 fold | 1.4 fold | 962 RLU | 2.8 fold | 1 fold | 1.4 fold | 962 RLU | – | – | – |
| B8 | – | – | – | – | – | – | – | – | 69800 MFI | 36500 MFI | – |
| B9 | – | – | – | – | – | – | – | – | – | – | MFI at 25 nM (CD96): 1170 MFI |
